Among the data in paper PMC5727412 are stoichiometry N values, retold here.

In the assay the target is AcrE1 with a C-terminal 6×His tag (Pseudomonas phage JBD5). The assay is described as follows: SEC; purified AcrE1 CHis; single peak; elution volume compared with a standard curve to estimate the native molecular mass.

As usually defined, the stoichiometry N is the number of molecules, sites or subunits per partner or assembly. For “AcrE1 with a C-terminal 6×His tag (natural protein)”, the stoichiometry N was 2.
